Ends that are not written are not given here. Me3 = trimethyl-lysine; Me2 = dimethyl-lysine
B1: H3K27me2 (peptide)
chain: QLATKAARKSAPATG
modifications: dimethyl-Lys27 (mature numbering; K28 of precursor). Taken as the H3K27me2 peptide of the Figure 5C table; limits are mature 19-33 by convention for Eed binding peptides, not given

Molecular target: ΔEed (Eed residues 77 to 441) (UniProt O75530 77-441)
Test: ITC

Sequence of ΔEed (Eed residues 77 to 441) (O75530 77-441, stated change not applied): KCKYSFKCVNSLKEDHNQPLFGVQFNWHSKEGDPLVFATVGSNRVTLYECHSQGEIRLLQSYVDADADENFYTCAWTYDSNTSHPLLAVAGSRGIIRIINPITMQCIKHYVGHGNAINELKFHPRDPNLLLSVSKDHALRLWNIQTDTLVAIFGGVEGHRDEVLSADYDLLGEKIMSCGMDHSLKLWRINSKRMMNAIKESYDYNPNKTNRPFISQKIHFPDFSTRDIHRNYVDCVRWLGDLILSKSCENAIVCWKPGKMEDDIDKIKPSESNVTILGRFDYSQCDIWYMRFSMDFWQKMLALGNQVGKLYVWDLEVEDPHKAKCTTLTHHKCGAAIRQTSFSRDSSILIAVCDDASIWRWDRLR

Row | Kd [µM] | Binder
1 | 3.4 | RLQAQRK(Me3)FAQSQY [Jarid2-K116me3 peptide]
2 | 10.4 | RLQAQRK(Me2)FAQSQY [Jarid2-K116me2 peptide]
3 | 68 | B1
4 | 36.4 | QLATKAARKSAPATG (trimethyl-lysine at K27) [H3K27me3 peptide]
